According to patent US20240317847A1 (Bayer, published 2024):

How the values were obtained:
murine IL-11 [1] = molecular target: T1, murine IL-11 (mouse, UniProt P47873 22-199); assay: Di-complex ELISA, competitor canine IL11RA-Fc on coated IL-11;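 for Efficacy (%): signal drop relative to signal at lowest antibody concentration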
T1 construct: Invigate, e.g. lot #C210819-09; biotinylated where coated in the ELISA; also called mIL-11; mIL11
T1 sequence: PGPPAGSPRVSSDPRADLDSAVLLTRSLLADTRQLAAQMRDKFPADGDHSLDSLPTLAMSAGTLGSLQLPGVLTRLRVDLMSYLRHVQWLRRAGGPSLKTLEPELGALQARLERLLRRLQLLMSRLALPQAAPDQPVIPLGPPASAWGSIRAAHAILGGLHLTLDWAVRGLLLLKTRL

human IL-11 [2] = molecular target: T2, human IL-11 (human, UniProt P20809 22-199); assay: Di-complex ELISA, competitor canine IL11RA-Fc on coated IL-11; Di-complex ELISA (blocking of IL-11/IL-11Ra), weak partial inhibition, efficacy 17.4%
T2 construct: Invigate, e.g. lot #C121021-19; biotinylated where coated in the ELISA; also called hIL-11; hIL11
T2 sequence: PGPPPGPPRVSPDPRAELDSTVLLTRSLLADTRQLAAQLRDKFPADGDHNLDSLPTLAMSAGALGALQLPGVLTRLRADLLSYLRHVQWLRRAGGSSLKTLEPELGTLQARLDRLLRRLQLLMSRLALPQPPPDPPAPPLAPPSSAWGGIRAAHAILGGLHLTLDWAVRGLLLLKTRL
Protocol: The assay is performed using streptavidin coated microtiter plates (Greiner bio-one, #781997). In a first step, 10 nM biotinylated mouse IL-11 (Invigate, Germany, e.g., lot #C210819-09) or human IL-11 (Invigate, Germany, e.g., lot #C121021-19) is coated in 25 μl PBS on the plate at 4° C. overnight. Next day, the plate is washed three times with 50 μl PBST and then blocked with 50 μl SmartBlock (Candor, #113125) for one hour at room temperature (RT). After additional three washes with PBST, 25 μl of a mixture of the murine anti IL-11 antibody and recombinant canine IL11RA-Fc fusion protein (Sino Biological, #70078-D02H) in PBS-T, 10% Smartblock are added simultaneously to the plate and incubated for one hour at RT. […] After three additional washes with PBS-T, 25 μl anti-human-POD (Sigma, #A0170) in PBS-T, 10% Smartblock is added and incubated for 1 hour at RT. After a final three washes with PBS-T, 25 μl AmplexRed (Fisher Scientific, A12222), 1/1000 in PBS, 0,003% H₂O₂, is added as substrate and incubated for 15 min at RT in the dark. Then, the fluorescence is measured with a plate reader at 535/595 nm. […] Efficacy was calculated as [(signal measured at lowest antibody concentration−signal measured at the highest antibody concentration)×100] divided by (signal measured at lowest antibody concentration−signal measured in the absence of IL11Ra). […]

rat IL-11 [3] = molecular target: T3, rat IL-11 (rat, UniProt Q99MF5 22-199); assay: cell-based or functional assay
T3 sequence: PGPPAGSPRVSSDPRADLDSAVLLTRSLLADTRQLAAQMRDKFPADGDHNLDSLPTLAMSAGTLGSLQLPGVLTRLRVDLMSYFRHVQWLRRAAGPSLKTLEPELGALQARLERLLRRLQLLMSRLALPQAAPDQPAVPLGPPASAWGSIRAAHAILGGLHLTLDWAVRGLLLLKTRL

human IL-11 [4] = molecular target: T2, human IL-11; assay: cell-based or functional assay
rat IL-11 [5] = molecular target: T4, rat IL-11 (rat, UniProt Q99MF5 22-199); assay: SPR (Biacore), 25 C, antibody captured via anti-Fc, IL-11 as analyte
T4 construct: Invigate recombinant protein; also called rIL11
T4 sequence: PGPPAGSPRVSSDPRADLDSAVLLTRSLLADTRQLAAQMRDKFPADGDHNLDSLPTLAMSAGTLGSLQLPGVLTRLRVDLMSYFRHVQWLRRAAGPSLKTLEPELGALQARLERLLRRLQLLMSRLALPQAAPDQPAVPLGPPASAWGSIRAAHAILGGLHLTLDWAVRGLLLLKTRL
Protocol: (§1) To assess the binding kinetics and affinity of anti-IL-11 bispecific antibodies as well as their species cross-reactivity profile, binding assays were conducted using surface plasmon resonance (SPR). […] Antibodies were captured either via anti-human Fc IgGs (“Human antibody capture kit”, Order No. BR100839, Cytiva) or via anti-mouse Fc IgGs (“Mouse antibody capture kit, Order No. BR100383, Cytiva) covalently amine coupled to a Series S CM5 sensor chip (Cytiva) depending on the isotype. The amine coupling was carried out according to the manufacturer's instructions using 1-ethyl-3-(3-dimethylaminopropyl) carbodiimide hydrochloride (EDC), N-hydroxysuccinimide (NHS) and ethanolamine HCl, pH 8.5 (“Amine Coupling Kit” BR-1000-50, Cytiva.). Human, mouse, cynomolgus or rat IL-11 was used as analyte at several dilutions within the concentration range from 0.05-200 nM. For binding assays with only one concentration 200 nM IL-11 was used. The sensor surface was regenerated with glycine pH 1.7 after each antigen injection. Obtained sensorgrams were double referenced (subtraction of reference flow cell signal and buffer injection) and were fitted to a 1:1 Langmuir binding model to derive kinetic data using the Biacore T200 Evaluation software or the Biacore Insight software.
(§2) If no value is reported, there was either no binding or very low binding and multiphasic binding behavior.

cynomolgus IL-11 = molecular target: T5, cynomolgus IL-11 (cynomolgus, UniProt P20808 22-199); assay: as above
T5 construct: Invigate recombinant protein; also called cIL11; Macaca IL-11
T5 sequence: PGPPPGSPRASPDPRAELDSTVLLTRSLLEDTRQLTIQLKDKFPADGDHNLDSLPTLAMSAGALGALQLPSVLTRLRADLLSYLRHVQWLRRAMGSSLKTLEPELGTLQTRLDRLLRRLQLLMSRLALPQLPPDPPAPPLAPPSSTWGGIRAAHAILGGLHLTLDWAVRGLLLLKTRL
Protocol: as §1, §2

murine IL-11 [6] = molecular target: T6, murine IL-11 (mouse, UniProt P47873 22-199); assay: as above
T6 construct: Invigate recombinant protein; biotinylated when immobilized in the Di-complex ELISA; also called mIL11; mIL-11
T6 sequence: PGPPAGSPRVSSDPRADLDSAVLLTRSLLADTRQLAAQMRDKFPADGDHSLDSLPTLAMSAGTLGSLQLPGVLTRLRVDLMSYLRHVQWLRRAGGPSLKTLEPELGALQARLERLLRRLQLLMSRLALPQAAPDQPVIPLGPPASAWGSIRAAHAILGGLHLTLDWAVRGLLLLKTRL
Protocol: as §1, §2

murine IL-11 [7] = molecular target: T6, murine IL-11; assay: Di-complex ELISA, canine IL11RA-hFc binding to immobilized mIL-11, competition
Protocol: In the Di-complex ELISA format anti IL-11 antibodies are tested for the ability to interfere with the formation of complexes consisting of immobilized murine IL-11 (Invigate, e.g., lot #C210819-09) or human IL-11 (Invigate, e.g., lot #C121021-19), and murine IL11RA-Fc fusion proteins or canine IL11RA-human-Fc fusion protein (FIG. 17a, b).
Bispecific antibodies were subjected to the experimental assay procedure described in Example 18 and IC50 [M], respectively efficacy (%) were calculated accordingly.

B1: TPP-18068 (antibody, mouse IgG1)
heavy: EVQLLESGGGLVQPGGSLRLSCAASGFTFSSYGMHWVRQAPGKGLEWVSVISYDGSYKYYADSVKGRFTISRDNSKNTLYLQMNSLRAEDTAVYYCAAGVPDYWGQGTLVTVSSAKTTPPSVYPLAPGSAAQTNSMVTLGCLVKGYFPEPVTVTWNSGSLSSGVHTFPAVLQSDLYTLSSSVTVPSSTWPSETVTCNVAHPASSTKVDKKIVPRDCGCKPCICTVPEVSSVFIFPPKPKDVLTITLTPKVTCVVVDISKDDPEVQFSWFVDDVEVHTAQTQPREEQFNSTFRSVSELPIMHQDWLNGKEFKCRVNSAAFPAPIEKTISKTKGRPKAPQVYTIPPPKEQMAKDKVSLTCMITDFFPEDITVEWQWNGQPAENYKNTQPIMDTDGSYFVYSKLNVQKSNWEAGNTFTCSVLHEGLHNHHTEKSLSHSPGK
light: QSVLTQPPSASGTPGQRVTISCTGSSSNIGAGYDVHWYQQLPGTAPKLLIYSNNERPSGVPDRFSGSKSGTSASLAISGLRSEDEADYYCAAWDDSLNGPVFGGGTKLTVLGQPKSSPSVTLFPPSSEELETNKATLVCTITDFYPGVVTVDWKVDGTPVTQGMETTQPSKQSNNKYMASSYLTLTARAWERHSSYSCQVTHEGHTVEKSLSRADCS
notes: mIgG1, Lambda
Efficacy (%) (murine IL-11 [1]): 64.2% | IC50 (murine IL-11 [1]): 2.9 nM | IC50 (human IL-11 [2]): 12 nM | RGA Efficacy (%) (rat IL-11 [3]): 94% | RGA IC50 (rat IL-11 [3]): 1.8 nM | RGA Efficacy (%) (human IL-11 [4]): 46.1% | RGA IC50 (human IL-11 [4]): 6.5 nM

B2: TPP-18068 (antibody, mouse IgG1)
heavy: EVQLLESGGGLVQPGGSLRLSCAASGFTFSSYGMHWVRQAPGKGLEWVSVISYDGSYKYYADSVKGRFTISRDNSKNTLYLQMNSLRAEDTAVYYCAAGVPDYWGQGTLVTVSSAKTTPPSVYPLAPGSAAQTNSMVTLGCLVKGYFPEPVTVTWNSGSLSSGVHTFPAVLQSDLYTLSSSVTVPSSTWPSETVTCNVAHPASSTKVDKKIVPRDCGCKPCICTVPEVSSVFIFPPKPKDVLTITLTPKVTCVVVDISKDDPEVQFSWFVDDVEVHTAQTQPREEQFNSTFRSVSELPIMHQDWLNGKEFKCRVNSAAFPAPIEKTISKTKGRPKAPQVYTIPPPKEQMAKDKVSLTCMITDFFPEDITVEWQWNGQPAENYKNTQPIMDTDGSYFVYSKLNVQKSNWEAGNTFTCSVLHEGLHNHHTEKSLSHSPGK
light: QSVLTQPPSASGTPGQRVTISCTGSSSNIGAGYDVHWYQQLPGTAPKLLIYSNNERPSGVPDRFSGSKSGTSASLAISGLRSEDEADYYCAAWDDSLNGPVFGGGTKLTVLGQPKSSPSVTLFPPSSEELETNKATLVCTITDFYPGVVTVDWKVDGTPVTQGMETTQPSKQSNNKYMASSYLTLTARAWERHSSYSCQVTHEGHTVEKSLSRADCS
notes: mIgG1, Lambda
Kd (rat IL-11 [5]): 0.29 nM | Kd (cynomolgus IL-11): 3.8 nM | Kd (murine IL-11 [6]): 0.35 nM

B3: TPP-29603 (bispecific antibody, IgG1)
chain 1: QVQLVESGGGVVQPGRSLRLSCAASGFTFSHYDMHWVRQAPGKGLEWVAVISYHGSVKFYADSVKGRFTISRDNSKNTLYLQMNSLRAEDTAVYYCARTPGFHFDYWGQGTLVTVSSGGGGSGGGGSGGGGSQSVLTQPPSASGTPGQRVTISCSGSSSNIGSNYVSWYQQLPGTAPKLLIYYDDLRPSGVPDRFSGSKSGTSASLAISGLRSEDEADYYCSAWDDSLSGVVFGGGTKLTVLGGGGSGGGGSGGGGSGVECPPCPAPPVAGPSVFIFPPKPKDVLTITLTPKVTCVVVDISKDDPEVQFSWFVDDVEVHTAQTQPREEQFNSTFRSVSELPIMHQDWLNGKEFKCRVNSAAFPAPIEKTISKTKGRPKAPQVYTIPPCKEQMAKDKVSLWCMITDFFPEDITVEWQWNGQPAENYKNTQPIMDTDGSYFVYSKLNVQKSNWEAGNTFTCSVLHEGLHNHHTEKSLSHSPGK
chain 2: EVQLLESGGGLVQPGGSLRLSCAASGFTFSSYGMHWVRQAPGKGLEWVAVISYDGSYKYYADSVKGRFTISRDNSKNTLYLQMNSLRAEDTAVYYCAAGVPDYWGQGTLVTVSSGGGGSGGGGSGGGGSQSVLTQPPSASGTPGQRVTISCSGSSSNIGSDYDVHWYQQLPGTAPKLLIYSNEERPSGVPDRFSGSKSGTSASLAISGLRSEDEADYYCSAWDSSLSGPVFGGGTKLTVLGGGGSGGGGSGGGGSGVECPPCPAPPVAGPSVFIFPPKPKDVLTITLTPKVTCVVVDISKDDPEVQFSWFVDDVEVHTAQTQPREEQFNSTFRSVSELPIMHQDWLNGKEFKCRVNSAAFPAPIEKTISKTKGRPKAPQVCTIPPPKEQMAKDKVSLSCAITDFFPEDITVEWQWNGQPAENYKNTQPIMDTDGSYFVVSKLNVQKSNWEAGNTFTCSVLHEGLHNHHTEKSLSHSPGK
notes: scFv-kih-mIgG1; bispecific comprising CDRs of TPP-29528 and TPP-29519
IC50 (murine IL-11 [7]): 3.9 nM
